Common to all, as to details: both partners purified
The target of test [1] is T1, ALC1^cat (ATPase motor of human ALC1, residues 16-612), 6xHis-tagged (human, UniProt Q86WJ1 16-612).
T1 construct: human ALC1 (Amplified in liver cancer 1; CHD1L), residues 16-612; Made by PCR-based mutagenesis of the ALC1^fl construct (pNIC-CH2); also called ALC1/CHD1L variant that lacks the macro domain; source: E. coli Rosetta 2 (DE3), purified (HisTrap, Q HP, Superdex 200)
T1 sequence (looked up): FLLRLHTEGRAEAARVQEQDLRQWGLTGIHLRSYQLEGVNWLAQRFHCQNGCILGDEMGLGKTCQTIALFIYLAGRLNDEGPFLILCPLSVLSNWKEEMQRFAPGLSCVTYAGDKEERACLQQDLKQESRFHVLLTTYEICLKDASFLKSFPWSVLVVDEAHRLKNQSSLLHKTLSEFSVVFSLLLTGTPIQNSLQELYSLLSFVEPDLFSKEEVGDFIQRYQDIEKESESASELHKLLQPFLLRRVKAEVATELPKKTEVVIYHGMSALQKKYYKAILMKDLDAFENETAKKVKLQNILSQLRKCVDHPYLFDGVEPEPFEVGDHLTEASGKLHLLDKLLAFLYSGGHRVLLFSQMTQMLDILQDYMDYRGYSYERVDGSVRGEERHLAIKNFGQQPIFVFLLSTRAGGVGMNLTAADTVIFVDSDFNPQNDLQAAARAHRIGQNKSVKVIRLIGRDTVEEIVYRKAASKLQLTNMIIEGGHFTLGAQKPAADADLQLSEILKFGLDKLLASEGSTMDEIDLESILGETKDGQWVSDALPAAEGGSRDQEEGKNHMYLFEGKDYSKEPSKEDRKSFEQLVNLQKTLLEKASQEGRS
Put plainly: SEC; 7 nmol each of ALC1^cat and ALC1^macro mixed, 10 min on ice, Superdex 200 10/300 GL, 20 mM MES pH 6.5, 300 mM NaCl, 10% glycerol, 0.5 mM TCEP; peak fractions on SDS-PAGE. A general note: SEC sorts molecules by how far they enter the pores of the column.

Test [2] addresses T1, ALC1^cat (ATPase motor of human ALC1, …). Nature of the test: pull-down; 5 μM 6xHis-ALC1^cat and 5 μM ALC1^macroΔ6xHis, Ni-NTA agarose, 1 h at 4°C, 20 mM HEPES pH 7.5, 300 mM NaCl, 10% glycerol, 20 mM imidazole, 0.5 mM TCEP; where indicated 5 μM GST-PARP1 pre-incubated with dsDNA and NAD+; eluate on SDS-PAGE.
The target in test [3] is T2, PARylated GST-tagged human PARP1 (human, UniProt P09874 1-1014, poly(ADP-ribose) (PARylated by incubation with dsDNA and NAD+; sites not stated)).
T2 construct: human PARP1; also called PARylated PARP1; GST-tagged PARP1 (BPS Bioscience); source: bought: BPS Bioscience; incubated with 230 bp dsDNA and NAD+ for 5 min at 37°C
T2 sequence (P09874 whole entry): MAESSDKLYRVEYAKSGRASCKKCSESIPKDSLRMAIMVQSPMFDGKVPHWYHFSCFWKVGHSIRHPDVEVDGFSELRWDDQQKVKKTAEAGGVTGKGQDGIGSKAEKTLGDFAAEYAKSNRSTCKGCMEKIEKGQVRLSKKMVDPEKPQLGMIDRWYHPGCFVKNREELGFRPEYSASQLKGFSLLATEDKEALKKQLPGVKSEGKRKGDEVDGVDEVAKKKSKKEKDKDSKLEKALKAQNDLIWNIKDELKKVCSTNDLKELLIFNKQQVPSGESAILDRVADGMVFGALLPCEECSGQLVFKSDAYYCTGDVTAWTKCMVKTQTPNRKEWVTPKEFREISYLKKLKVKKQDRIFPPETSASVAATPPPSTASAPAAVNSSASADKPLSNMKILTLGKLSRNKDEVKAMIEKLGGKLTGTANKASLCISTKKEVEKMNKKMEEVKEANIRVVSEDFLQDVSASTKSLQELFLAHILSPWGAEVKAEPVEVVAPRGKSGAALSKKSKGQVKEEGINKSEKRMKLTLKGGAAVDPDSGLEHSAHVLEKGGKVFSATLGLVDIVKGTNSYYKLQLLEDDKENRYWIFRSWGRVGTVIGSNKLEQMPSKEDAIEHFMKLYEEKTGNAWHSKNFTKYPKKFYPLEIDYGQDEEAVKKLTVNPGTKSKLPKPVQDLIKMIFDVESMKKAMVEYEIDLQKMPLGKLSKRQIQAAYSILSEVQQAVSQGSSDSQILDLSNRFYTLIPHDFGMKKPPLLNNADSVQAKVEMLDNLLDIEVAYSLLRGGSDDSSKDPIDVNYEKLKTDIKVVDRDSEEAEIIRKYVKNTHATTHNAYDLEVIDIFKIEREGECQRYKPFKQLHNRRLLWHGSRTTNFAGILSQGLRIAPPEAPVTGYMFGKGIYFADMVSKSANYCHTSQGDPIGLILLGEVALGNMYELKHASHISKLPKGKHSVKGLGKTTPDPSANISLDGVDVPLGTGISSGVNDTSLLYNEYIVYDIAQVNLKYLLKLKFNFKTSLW
The description is as above.

Test [4] has as its target T3, PARylated (activated) human PARP1 used in HDX-MS (human, UniProt P09874 1-1014, poly(ADP-ribose) (PARylated; sites not stated)).
T3 construct: human PARP1; also called PARylated PARP1
Put plainly: HDX-MS; ALC1^fl with and without PARylated or non-PARylated PARP1; 50 mM Tris, 50 mM NaCl, 5 mM MgCl2, 1.5 μM 239 bp dsDNA, 1 mM ATP, 1 mM TCEP pH 7.9, ~70% D2O, 23°C, five time points.

The values below come from PMC5745148, “Mechanistic Insights into Autoinhibition of the Oncogenic Chromatin Remodeler ALC1” (Molecular Cell, 2017).

T3 sequence (P09874 whole entry): as above

B1: ALC1^macro (macro domain construct of human ALC1, residues 613-879), 6xHis-tagged (domain or fragment, UniProt Q86WJ1 613-879, looked up)
chain: LRNKGSVLIPGLVEGSTKRKRVLSPEELEDRQKKRQEAAAKRRRLIEEKKRQKEEAEHKKKMAWWESNNYQSFCLPSEESEPEDLENGEESSAELDYQDPDATSLKYVSGDVTHPQAGAEDALIVHCVDDSGHWGRGGLFTALEKRSAEPRKIYELAGKMKDLSLGGVLLFPVDDKESRNKGQDLLALIVAQHRDRSNVLSGIKMAALEEGLKKIFLAAKKKKASVHLPRIGHATKGFNWYGTERLIRKHLAARGIPTYIYYFPRSK
notes: human ALC1 (CHD1L), residues 613-879 (linker and macro domain); Made from the ALC1^fl construct (pNIC-CH2); no cleavage of the tag is described for this version; source: E. coli Rosetta 2 (DE3), purified (HisTrap, Q HP/SP HP, Superdex 200)
As to B1, the binding result in test [1] is reported as “binds”.

B2: ALC1^macroΔ6xHis (macro domain construct of human ALC1, residues 613-879, 6xHis tag removed by TEV) (domain or fragment, UniProt Q86WJ1 613-879, looked up)
chain: B1 chain
notes: human ALC1 (CHD1L), residues 613-879; A TEV-cleavage site was added to the ALC1^macro construct; also called ALC1^macro6xΔHis; non-tagged macro domain; source: E. coli Rosetta 2 (DE3), purified; TEV cleavage of the 6xHis tag, second HisTrap flow-through
As to B2, the binding result in test [2] and in test [3] was “binds” in each case.

B3: ALC1^fl (essentially full-length human ALC1, residues 16-879), 6xHis-tagged (enzyme, UniProt Q86WJ1 16-879, looked up)
chain: FLLRLHTEGRAEAARVQEQDLRQWGLTGIHLRSYQLEGVNWLAQRFHCQNGCILGDEMGLGKTCQTIALFIYLAGRLNDEGPFLILCPLSVLSNWKEEMQRFAPGLSCVTYAGDKEERACLQQDLKQESRFHVLLTTYEICLKDASFLKSFPWSVLVVDEAHRLKNQSSLLHKTLSEFSVVFSLLLTGTPIQNSLQELYSLLSFVEPDLFSKEEVGDFIQRYQDIEKESESASELHKLLQPFLLRRVKAEVATELPKKTEVVIYHGMSALQKKYYKAILMKDLDAFENETAKKVKLQNILSQLRKCVDHPYLFDGVEPEPFEVGDHLTEASGKLHLLDKLLAFLYSGGHRVLLFSQMTQMLDILQDYMDYRGYSYERVDGSVRGEERHLAIKNFGQQPIFVFLLSTRAGGVGMNLTAADTVIFVDSDFNPQNDLQAAARAHRIGQNKSVKVIRLIGRDTVEEIVYRKAASKLQLTNMIIEGGHFTLGAQKPAADADLQLSEILKFGLDKLLASEGSTMDEIDLESILGETKDGQWVSDALPAAEGGSRDQEEGKNHMYLFEGKDYSKEPSKEDRKSFEQLVNLQKTLLEKASQEGRSLRNKGSVLIPGLVEGSTKRKRVLSPEELEDRQKKRQEAAAKRRRLIEEKKRQKEEAEHKKKMAWWESNNYQSFCLPSEESEPEDLENGEESSAELDYQDPDATSLKYVSGDVTHPQAGAEDALIVHCVDDSGHWGRGGLFTALEKRSAEPRKIYELAGKMKDLSLGGVLLFPVDDKESRNKGQDLLALIVAQHRDRSNVLSGIKMAALEEGLKKIFLAAKKKKASVHLPRIGHATKGFNWYGTERLIRKHLAARGIPTYIYYFPRSK
notes: human ALC1 (CHD1L), residues 16-879; also called Human ALC1^fl (16-879) pNIC-CH2; source: E. coli Rosetta 2 (DE3), purified (HisTrap, Q HP/SP HP, Superdex 200)
B3: the binding result in test [4] is on record as “binds”.
